19 sequences from the DeepSol protein solubility set can be followed below.

A short description of the data set: soluble on expression in E. coli; label from the status in PepcDB or PDB records.
For “MSLEKMEDHFILCGYGLMGREIIKELPKDKVVVIDSDIGKVSAAREDGYVAVHGDATDDFTLEKAGIGKAKALICCMSDASNAFAILTAKELNPRIKTVAILRSPDAEKKMRRVGVDILLSPYRDAAKKIISLLSEKAVAEFVETVISGAKSLNLEKVVADEYMDGKTLRELDLRRRTGCIVVAVVRRGDVILPEADTRLEKGDILYILCSGEAPLELEGHHHHHH”, the “soluble on expression in E. coli” value was “soluble”. The entry for “MSLEKYGNVNDFLDDDLVKNGNPDVYIVVGENSATPDVTSANKISAKIGTMTYTEKVVEDTSTTGYQIIGESESINLLDGTDKLDSAGTKKSWILVIGADDSYSDYFDDDEGNSFSYSEFSEADKTRSLGELGYLLKLYDIDPKNHFESDDDASELVFVRITDSDKNANSQTYNIEKDMVYVSIVYPNQISAFKLAKELEEGYEIPFLGDKYRIVKIDEDDDIIYLGTASYEGTIAHNEYISSGEYQVVLGEILENEDEYRVEISVLRNGNMIEEHTETEGHHHHHH” is “soluble”. The entry for “MSLEQLNERTVLEYVEKTDLRKSILGDGKLSAQIISEGNVNLIFRICNIENGNSVILKQALPYAWRYPDFKMPVDRQRIEYETLSIESQYAPDYVPKIYFYDNKSHVLVIEDLKELKVMREALIDGEIFPKVAEHIGIFMAKTLFYTSDLYLSSGKKKEMVINFSNPVLCKVQEDLVFTQPYIDHPNNKWSKPLDEIVKKIHQDDKIRGEIFYFKELYMTKSQALIHNDLHTGSIMLNEKTTKVIDPEFAFYGPMAHDIGTYFANLAIAYAAQEAHRVEPGTRNVYREWIAESFEETWNVFQQRFLNAWEKDSNGEWPSESYRENYMLRLLKESAGFGAAEIFRRTIGMAHVHDFWTIKDENIRAKSESIALYIAINWINMWKDVEKIQDLSQVMKNSKPLEGHHHHHH” is “soluble”; for “MSLEREKVELFKEVLKKLHKGEDVESLKKQFGELLSQIPPFEIPVIEQELLKSGEIDVRDIIKMCDLHVEFFRGAVSEAGREIEKLPNGHPLRTLYEENKQILKDAEALSLLASSMFSLPKDDPRRKQFYEKLVQHVSELHRIGLTHYTREEMLIFPYIERRGITAVPTVLWSKHDETRLKIRLLLNLLKKEESDERLKEEALELSRMLSDMVFRENNILYPTLKVLLTEGEWKAIKMLEKDIGYYKIEVTEEWETPEKPLLPHRNCLRRPIPFRGLGGSRHVYHLQIQEGHHHHHH” it is “soluble”; for “MSLERLRVAAYCRVSTDSEDQLNSYKSQVQYYTDMIKKNKEWVLADIYADEAITGTQVTKREDFQRMINDCMNGEIDMVITKSISRFARNTLDTLKYVRMLKERNIAVYFEDEKINTLTMDGELLLVVLSSVAQQEVENISANVKKGLKMKMKRGELVGFQGCLGYDYHPEDKTITVNQEEAEIVRYIFNRYVDGAGGSVIGQELENLGYKTKYGSSTWAPSTVIGIIKNEKYKGDILLGKTFTVDPISKRRLENMGEEDKFYMKDHHEPIISEEVFEKAQEILNRRNKNREGHHHHHH” it is “soluble”.

Consider “MSLESKYTVLDMFSGAGGLTEGFFQQGFKFVSHIEKNCHARNSLETRAIYHSLKDSSNERIYRDYISGNLNRDEFIHKFKELELTPAGLLQGEVTESNETTMIKEIKEHLKVIDSDSVDVVIGGPPCQAYSVAGRGRKPKEMKDDPRNYLYRHYISFLKSFEPKIFVFENVPGIKSAINGIIFSNLHEELEKLGYKTEAHMLNAKDFSVLQERNRIIFIGWKNEHDLSYPDFLKTPLGRFHVSSLLNDLPPLQAGEGTEGPAKYTKPFSWSSEYLQRFKIREKKDILIQHNARIHNPRDRTIYRLAIEKWDKERKRLKYNELSPELQTHKNKTSFLDRFKVVNQYGYSHAILAHISKDGHYFIHPDIHQARSLTVREVARIQSFPDNYKFEGPRIAQYAQIGNAVPPLMAKGIAVEIEKMLEEISEGHHHHHH”, for which the “soluble on expression in E. coli” value was “not soluble”. Consider “MSLESLVPYNETVSTEVQFAKALEKYKFDLLHAKSNFHDQDQEQNTADVNNQHLQTQAQSSSPFDIVQKFADIAAANAYSVLPDQLSSNIDDDVYDQDFTNWDLEMKFWRLVENLNYYRVFCYENEVFGKEKEIGELYAILDWLQYHSAGEREHDQILKDQLGNEDENGNGDEEEKLLGTRSKWINTRLSIENGVYDALSGKNSNDQLIQEMDVDAPLRSGMHVDAKDAELDSKNFQAIYKLVVLGEYTDAIEFANETGNHALAVILAGAISFVEDDDQVMELANEVEGEGNIKLSASTRDKTIWVRLVYKLSKNTNLDPNERLIYSYLSGGDISENLKRASDSYEESINILVRQLLTYSELQKMHLNSFVEFTPPAPQANSMKDILNIVSNSLGSRAAEESRHPVRILMAAIMLDDLDPIISDLNDSTNDNILRILVHASLFLALLRSPQNPEQLNALITLYISKLTENNQTELVPLYLSFIPDERDARETYSLILASITDKEQRRKQLEIAKGISQSHQQSPLPLLQSQPSSHSNEDTEMVPIDDVEQDKLVNVLRRTVERVMDETEEYYNPGNEPFAIVDSGSEGHHHHHH”, for which the “soluble on expression in E. coli” value is “soluble”. The entry for “MSLESPISEKKPPVIVQEVEQKPEVVEKENILIEQEKEVIKPLDVPLILQKPELMRGCEVTSLAMVLQFSGVKVDKMELASKIHYVPFQSNGLKGNMHKGFIGDMATFDKPGLGVFVEPILELAKLYVPDEKVMNLSYKEPEHIYEAIDRGLPVWVLTNARFKRLPDNQFYTWRTDTGEMKVTYHQHSVVVTDYDDQYVYINDPLKTDKHRAINRNNFEQSWIQMGRQAMTISIEGHHHHHH” is “not soluble”. With “MSLEVKLNENERIDDLQCKGLKIIQKKAGFCFGLDAVLLANFADIKKGDTVIDLGTGTGIIAILIAGKTEAKSIIGLEIQEEMAEMAQRSVKLNNLEDRVKIVCGDIKNSVEMFGASKFDVVVTNPPYMNQGGGLLNISDTKAISRHEIKCTLEDVIKASSKLLVPGGQFAMVHRPDRLVDIIWLMRKYSIEPKYLQFVHPYPRKKANLILIKGARQGRVQLKMLEPLYVYDENGNYSKEIDNIYGREVRNEGHHHHHH”, the “soluble on expression in E. coli” value is recorded as “soluble”.

On to “MSLEVRWNEYLSRNGSLFSSDELSGASPPSVFVGSYGYPRVGVGPMVPPVHGDTSLMDAPERWAGRPLDEIVNYRLSLVRGIRKTRVTGTSGRYIEGLQEAAMSRRPVDSDIRFEKPVSPAALADGCCAPFGPVGEIRRASFGGSSADGAIERAYYDRDLGAADAAVALYDGGTEISRIQGCLSVGMLGRRRKLVPTRWSITAVDDMVSKRLVGRIKDAPVSDAHQVFHYVHMGNLFSVVLFPHRWLFEMMEAYYSGGVLGFGADHEDARGLDHAPATAGAHFASRLAVAEHLCGRGVQAGALVLREIRAEYSVPVGVWQVREGLRAAMAQKPFVAGSLDEAIDEACRPMSISRNEWLSHGSIMRLVRQRTLSEFFEGHHHHHH”, for which the “soluble on expression in E. coli” value was “not soluble”. The entry for “MSLFLKDDSIQIREVWNDNLQEEMDLIRDVVDDFPYVAMDTEFPGIVVRPVGTFKSNADYHYETLKTNVNILKMIQLGLTFSNEQGNLPTCGTDKYCIWQFNFREFDLDSDIFALDSIELLKQSGIDLAKNTLDGIDSKRFAELLMSSGIVLNENVHWVTFHSGYDFGYLLKLLTCQNLPDSQTDFFKLINVYFPTVYDIKHLMKFCNSLHGGLNKLAELLEVERVGICHQAGSDSLLTSCTFRKLKENFFVGPLHKYSGVLYGLGVENGQVAI” is “soluble”; for “MSLFVSLSEKKKFLTWLVNTAPFGRREVLWILNYLLTHDAILNNVHFVENVEKTDRGIRVVADGLGKEPLLLFIQAQEFTDPEQIFHEIRMNWRKALYLECVFPEAWQTSQYLSVLEDNPFAPWNEQVDQEVARAIDQYFKQEEQTQRMALLKAQIDDALETGNKEAFLELSDELNRLKQQEGHHHHHH” it is “soluble”; for “MSLFYEEVFSDLKEEEKALLEFISSGNLEIDRKLEGGVPVGSLCLLEGGNDSGKSIFLQQIMWGALNQDKRVLALATEKTSKELLNQMESLKHGISDYFIIGRAKIFEINAGYVEENPQLSESLLQVLLECIKRCKEELILIDSLTIFAVNASENAVLNFFTECVKLCDNGKTILISVHGYAFSQSVLYRLRSVCSVCLELRIEQVGDQWIKTMEIQKLRGARKTRGNLLSFDVDSKFGLKIIPVSKVKAEGHHHHHH” it is “soluble”. As to “MSLGAYLSEPLTTKDSSDESNEFLASGSSSMQGWRISQEDAHNCILNFDDQCSFFAVYDGHGGAEVAQYCSLHLPTFLKTVEAYGRKEFEKALKEAFLGFDATLLQEKVIEELKVLSGDSAGSDAEPGKDSGCTAVVALLHGKDLYVANAGDSRCVVCRNGKALEMSFDHKPEDTVEYQRIEKAGGRVTLDGRVNGGLNLSRAIGDHGYKMNKSLPAEEQMISALPDIEKITVGPEDEFMVLACDGIWNFMTSEQVVQFVQERINKPGMKLSKICEELFDHCLAPHTRGDGTGCDNMTAIIVQFKEGHHHHHH”, the “soluble on expression in E. coli” value is “soluble”. To “MSLGDSRGRVFSWSVSDQPGRSAADHWVKDEGGDSCSGCSVRFSLTERRHHCRNCGQLFCQKCSRFQSEIKRLKISSPVRVCQNCYYSLQHERGAEDGPRNCEGHHHHHH” belongs “soluble”. To “MSLGEHILLNQTLSDVIHYFKSQRCGGVFDQQDRQVPVLNANQTVDVHGGWYDASGDVSKYLSHLSYANYLNPQQTPMVVWNILKGLSLLEGSEDIAAFTRTRLIEEALFGADFLVRMQNEKGFFYMTVFDKWSKDTAQREICAYETQLGHKFDDYQAGFRQGGGVAIAALAAASRLGVHGEYDQQKYRNAAENGYWHLKEHNTQYLNDGEENIIDEYCALLASVELFKATKETRYLEESRLWAQRLVARQMSDEQIQHFWSANQDGSRPYFHAAEAGLPGIALCEYLAIEDDSVQTESVKCIVNRACEFEIKISNKVTNPFGYPRQYVKGVNESKRDAFFVAHNNESGYWWQGENARLGSLATMAYLAQPHIASQEIQQQLSVFAQDALNWIVGLNPYDMCMLDGHGRNNPDYLPQYGFFNAKGGVCNGITGGFEDEEDIAFNPPAQKDDMLQNWRWGEQWIPHGAWYLLAIMSQAQHISQLATSKNIKEGHHHHHH” belongs “not soluble”; to “MSLGELPPAPSDSKRTVFLDIDETLVHVTPYPLPFVKPDATFLLQEHRRPSDPPGVSPEYLPGVSAGAAPRAALLHVYYRPFLMPFLENLLQTNRCELVAFTAALREYADPILDGIETKLGGARGSVFAARLYRQHCARAPRSKDLVHAAPSRCLSRCVLLDNSVVSLAAQLANGLLLRPFYGDPQDRELEGVLAFLLDLLEKTGDIRESMKESGMLHKVTEGHHHHHH”, “not soluble”; to “MSLGIRIGDGCIFRDPLTTRIDVSRPALVSIGSNVDMNTYFQILTHDWASFVFRNKYHDFVNSSGRVEIGSNIYIGTNVIVLRGVTIGDNCVIGAGSVVTHDIPANSVAVGAPCRVVCSLDEYYQKRKVKGLQEAVEHVKAFQKNFGRDPLPHELYEEFIYFVDASNVEEYERQGVPVRSQLSIAYGDWLSTHKAKFSSYDDFIQYVNQKMNETLEHHHHHH”, “not soluble”.

Turning to “MSLGKEKKVYIFDSILRDGSQAQGVSFSVADKIKIVKKLDELGIDYIEAGNPSSNPKDREFFEEIRSLKLKHSKLCAFGSTRRAGAKAEEDEGIKKLVDSGVNVFSIFGKAWDFHVTDIIKTSIEENLNMIRDSIKYLVSLNKEVVFDAEHFFDGFKSNKEYAIEVLNTARLAGAKWIVLCDTNGGTMPNEVSDIVKYLVRDLNFDNLGVHFHDDSGMAVANSVVAVHYGVNHVQGTFTGVGERCGNANLSNIIANLSLKMGYNTIKNDKLEYLTVAFRYICEACNMTPNERVAYVGNCAFSHKGGMHIDAVRKNPKSFEHIDPSRVGNSRRILVSEVSGRSTILPALKRINPKIDKDSPETKAVVKRIKDLEYLGYQFEGAEGSFELLMRKELNVFRPSFELVEYKVIAERPYLSDLSATAIVKIMVNGKLETTAADGKGPVNALDKALRKALGVFYKELANVYLTDYKVRVISGTKATSAKIRVLIESTDGVSTWTTVGVSYDIIEASWLALVDSVEYKLIQCNKEENNNEKTDDYDTKNTEGHHHHHH”, the “soluble on expression in E. coli” value is “soluble”.
